Ends that are not written are not given here. * marks the point of attachment. Biotin = O=C1N[C@H]2[C@H](CS[C@H]2CCCCC(=O)*)N1; Ahx = NCCCCCC(=O)O
Biological target: calmodulin (CaM), recombinant (UniProt P0DP23 1-149)
Test: SPR

{Biotin-Ahx}-KKRKKAKKDYQPNYFLSIPI [biotin-ahx-AKAP18δ-N (79–98)] was tested, and the Kd was 4.7 ± 0.7 µM, the koff was 0.00053 s⁻¹ and the kon was 130 M⁻¹ s⁻¹.

— PMC9500498 (Circulation research, 2021)
